Data as given in patent US20140322262A1.

What was measured:
centromere B protein = centromere B protein (UniProt P07199); test: Luminex AtheNA Multi-Lyte ANA Test, 0.15 µg mab per test
Histones = test: as above
Mab 4E10 = test: ELISA; gp140 (19.25-1230 nM) mixed with 10 µg/ml 4E10 MAb, added to wells with 1.35 µg cardiolipin
FMS peptide (T4; HIV-1) = test: SPR, FMS conjugate in DMPC liposomes
SS-A/Ro = test: Luminex AtheNA Multi-Lyte ANA Test, 0.15 µg mab per test

Chain of FMS peptide (T4; HIV-1) (P03375 656-683): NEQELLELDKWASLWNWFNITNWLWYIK
Chain of UniProt P07199 (P07199 2-599): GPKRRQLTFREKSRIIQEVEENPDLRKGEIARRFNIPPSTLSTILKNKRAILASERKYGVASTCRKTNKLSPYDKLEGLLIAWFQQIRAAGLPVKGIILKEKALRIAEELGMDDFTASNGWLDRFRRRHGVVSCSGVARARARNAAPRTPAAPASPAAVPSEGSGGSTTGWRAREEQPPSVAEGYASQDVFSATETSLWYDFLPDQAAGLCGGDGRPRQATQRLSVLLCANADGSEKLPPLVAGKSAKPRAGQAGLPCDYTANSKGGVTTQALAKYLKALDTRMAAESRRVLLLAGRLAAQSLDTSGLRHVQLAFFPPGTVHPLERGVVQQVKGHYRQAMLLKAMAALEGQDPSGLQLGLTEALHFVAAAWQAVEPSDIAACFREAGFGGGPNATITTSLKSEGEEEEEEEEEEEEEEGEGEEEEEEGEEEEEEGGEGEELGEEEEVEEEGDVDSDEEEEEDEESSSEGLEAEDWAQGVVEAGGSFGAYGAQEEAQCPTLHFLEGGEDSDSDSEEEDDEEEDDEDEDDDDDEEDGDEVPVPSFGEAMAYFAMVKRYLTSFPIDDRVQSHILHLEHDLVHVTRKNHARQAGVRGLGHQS

Substance: IgG1b12 (antibody)
- relative units based on a standard curve (relative units) (centromere B protein): 479
- relative units based on a standard curve (relative units) (Histones): 185

Substance: soluble HIV-1 Env gp140 oligomers (CON-S)
- IC50 (Mab 4E10): 145 nM

Substance: Mab 2F5 (antibody)
- Kd (FMS peptide (T4; HIV-1)): 0.18 nM
- relative units based on a standard curve (relative units) (centromere B protein): 1780
- relative units based on a standard curve (relative units) (SS-A/Ro): 290
- relative units based on a standard curve (relative units) (Histones): 1010

Substance: Mab 4E10 (antibody)
- Kd (FMS peptide (T4; HIV-1)): 27 nM
- relative units based on a standard curve (relative units) (SS-A/Ro): 221
